From patent publication US20240117030A1 (Pfizer, published 2024) come the findings set out here.

Test [1] addresses T1, recombinant human IL-13 (human, UniProt P35225 35-146). Put plainly: cell-based or functional assay.
Another test has as its target native human IL-13 (human, UniProt P35225 35-146, limits assumed). As to the kind of experiment: cell-based or functional assay.
In test [2] the target is T1, recombinant human IL-13. As to the kind of experiment: cell-based or functional assay. This is another data set of the same source.
In test [3] the target is T1, recombinant human IL-13. As to the kind of experiment: cell-based or functional assay. The source holds these as a separate data set.
The target of test [4] is T1, recombinant human IL-13. As to the kind of experiment: cell-based or functional assay. This is another data set of the same source.
The target of test [5] is T2, recombinant cynomolgus monkey IL-13 (cynomolgus monkey, UniProt Q0PW92 19-132).
T2 construct: also called Cyno IL-13
T2 sequence (Q0PW92 entry or part of it limits assumed): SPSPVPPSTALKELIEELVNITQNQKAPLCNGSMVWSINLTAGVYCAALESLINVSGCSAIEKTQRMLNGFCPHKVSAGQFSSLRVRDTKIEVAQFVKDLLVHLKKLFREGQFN
As to the kind of experiment: competition ELISA: test species IL-13 against biotinylated human IL-13 for binding to IL13-0001. A general note: ELISA stands for enzyme-linked immunosorbent assay.
Excerpt: (§1) Recombinant human, mouse, rat, and dog IL 13 were purchased from R&D Systems (Minneapolis, MN). Recombinant sheep and rabbit IL-13 were produced by Pfizer Global Biotechnologies (PGBT, Cambridge, MA). Recombinant cynomolgus monkey IL 13 was purchased from Sino Biological (Beijing, China).

Another test deals with T3, recombinant dog IL-13 (dog, UniProt Q9N0W9 19-131, limits assumed).
T3 sequence (looked up): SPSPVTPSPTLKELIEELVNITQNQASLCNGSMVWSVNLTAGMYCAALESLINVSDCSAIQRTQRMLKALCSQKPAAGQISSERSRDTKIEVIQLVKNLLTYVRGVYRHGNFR
The test is described as above.

The next test has as its target T4, recombinant mouse IL-13 (mouse, UniProt P20109 26-131, limits assumed).
T4 sequence (looked up): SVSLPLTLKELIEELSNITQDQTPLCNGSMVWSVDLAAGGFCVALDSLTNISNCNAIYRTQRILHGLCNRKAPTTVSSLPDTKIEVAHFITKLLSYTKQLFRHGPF
The test is described as above.

In the next test the target is T5, recombinant human IL-4 (human, UniProt P05112 25-153).
T5 sequence (looked up): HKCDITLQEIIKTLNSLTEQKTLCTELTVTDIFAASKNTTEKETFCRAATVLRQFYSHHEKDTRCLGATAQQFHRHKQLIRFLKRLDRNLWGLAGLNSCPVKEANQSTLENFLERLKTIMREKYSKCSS
Put plainly: cell-based or functional assay.

Test [6] deals with T6, recombinant cynomolgus monkey IL-4 (cynomolgus monkey, UniProt P79339 25-153).
T6 construct: also called Cyno IL-4
T6 sequence (looked up): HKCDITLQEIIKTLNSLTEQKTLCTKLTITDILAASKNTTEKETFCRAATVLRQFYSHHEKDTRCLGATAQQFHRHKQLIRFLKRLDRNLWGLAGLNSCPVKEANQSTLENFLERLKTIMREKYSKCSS
As to the kind of experiment: competition ELISA: test species IL-4 against biotinylated human IL-4 for binding to IL4-1305.
Description: (§2) Recombinant human, mouse, rat, dog, and rabbit IL 4 were purchased from R&D Systems (Minneapolis, MN). Recombinant cynomolgus monkey and sheep IL-4 were prepared by Pfizer, Cambridge, MA).

A further test addresses T7, recombinant dog IL-4 (dog, UniProt O77762 25-132).
T7 sequence (looked up): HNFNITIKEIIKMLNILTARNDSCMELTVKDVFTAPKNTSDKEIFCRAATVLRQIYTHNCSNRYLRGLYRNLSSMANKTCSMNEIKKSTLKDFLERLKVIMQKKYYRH
The test is described as above.

The next test deals with T8, recombinant sheep IL-4 (sheep, UniProt P30368 25-135, limits assumed).
T8 sequence (looked up): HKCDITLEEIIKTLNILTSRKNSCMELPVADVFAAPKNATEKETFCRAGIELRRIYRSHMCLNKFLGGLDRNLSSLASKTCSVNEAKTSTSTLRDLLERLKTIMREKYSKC
The description is as above.

A further test addresses T9, recombinant rabbit IL-4 (rabbit, UniProt Q9MZR8 25-147, limits assumed).
T9 sequence (looked up): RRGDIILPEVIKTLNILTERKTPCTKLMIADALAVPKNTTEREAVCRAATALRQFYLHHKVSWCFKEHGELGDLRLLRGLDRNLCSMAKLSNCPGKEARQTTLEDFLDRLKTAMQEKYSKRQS
The test is described as above.

In the next test the target is T10, recombinant rat IL-4 (rat, UniProt P20096 25-147, limits assumed).
T10 sequence (looked up): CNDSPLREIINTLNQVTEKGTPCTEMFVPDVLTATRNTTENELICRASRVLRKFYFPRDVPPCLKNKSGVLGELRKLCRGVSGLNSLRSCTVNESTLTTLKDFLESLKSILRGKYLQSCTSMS
The test is described as above.

The next test concerns the target T11, recombinant mouse IL-4 (mouse, UniProt P07750 23-140).
T11 sequence (looked up): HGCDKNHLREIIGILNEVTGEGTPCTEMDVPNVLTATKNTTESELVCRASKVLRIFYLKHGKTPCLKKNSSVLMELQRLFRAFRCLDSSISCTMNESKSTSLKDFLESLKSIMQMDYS
Described as above.

A further test addresses T12, cynomolgus monkey IL-4 (cynomolgus monkey, UniProt P79339 25-153).
T12 construct: mature; also called cy IL-4; cyno IL-4
T12 sequence (looked up): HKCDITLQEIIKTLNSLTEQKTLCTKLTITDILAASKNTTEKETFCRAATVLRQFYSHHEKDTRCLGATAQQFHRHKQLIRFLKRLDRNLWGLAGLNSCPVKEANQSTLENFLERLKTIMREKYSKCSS
As to the kind of experiment: ELISA: competition with biotinylated human IL-4 for binding to IL4-1305.

The next test addresses T13, mouse IL-4 (mouse, UniProt P07750 23-140).
T13 construct: also called mu IL-4
T13 sequence (looked up): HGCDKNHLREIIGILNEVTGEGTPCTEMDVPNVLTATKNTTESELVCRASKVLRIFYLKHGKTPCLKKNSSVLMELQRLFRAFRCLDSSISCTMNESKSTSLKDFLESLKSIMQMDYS
The test is described as above.

For a further test, the target named is T14, rat IL-4 (rat, UniProt P20096 25-147, limits assumed).
T14 construct: also called rt IL-4
T14 sequence (looked up): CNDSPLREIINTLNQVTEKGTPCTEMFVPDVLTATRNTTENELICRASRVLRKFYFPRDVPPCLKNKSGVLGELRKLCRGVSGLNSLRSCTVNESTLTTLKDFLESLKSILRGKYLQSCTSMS
Described as above.

For a further test, the target named is T15, rabbit IL-4 (rabbit, UniProt Q9MZR8 25-147, limits assumed).
T15 construct: also called rb IL-4
T15 sequence (looked up): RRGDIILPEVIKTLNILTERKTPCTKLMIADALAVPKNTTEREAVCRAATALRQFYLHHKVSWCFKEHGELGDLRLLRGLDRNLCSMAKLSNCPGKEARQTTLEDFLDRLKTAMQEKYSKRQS
The description is as above.

Another test has as its target T16, dog IL-4 (dog, UniProt O77762 25-132).
T16 sequence (looked up): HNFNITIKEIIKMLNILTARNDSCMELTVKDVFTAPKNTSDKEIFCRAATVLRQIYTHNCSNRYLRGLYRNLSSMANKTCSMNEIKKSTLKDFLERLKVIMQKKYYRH
The test is described as above.

A further test has as its target T17, sheep IL-4 (sheep, UniProt P30368 25-135, limits assumed).
T17 sequence (looked up): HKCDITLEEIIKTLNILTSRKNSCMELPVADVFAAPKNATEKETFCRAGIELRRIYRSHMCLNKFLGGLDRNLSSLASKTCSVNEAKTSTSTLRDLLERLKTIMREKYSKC
The description is as above.

Values joined by “and” are separate entries in the source; they are usually repeats but may differ in a detail not shown here. Identical values can stand only once.

T1 sequence (P35225 35-146 limits assumed): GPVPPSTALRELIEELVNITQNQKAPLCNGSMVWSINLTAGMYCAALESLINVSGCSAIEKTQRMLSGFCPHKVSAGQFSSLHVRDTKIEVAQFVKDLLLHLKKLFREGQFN
Chain of native human IL-13 (P35225 35-146 limits assumed): as above
Excerpt for recombinant dog IL-13: as §1
Description for recombinant dog IL-4: as §2
Excerpt for recombinant mouse IL-13: as §1
Description for recombinant mouse IL-4: as §2
Description for recombinant rabbit IL-4: as §2
Description for recombinant rat IL-4: as §2
Description for recombinant sheep IL-4: as §2

B1: IL13-0001 (antibody, human IgG1, kappa, V domains shown)
VH: EVQLVESGGGLVQPGGSLRLSCAASGFTFSSYAMSWVRQAPGKGLEWVASISSGDTTYYPDSVKGRFTISRDNAKNSLYLQMNSLRAEDTAVYYCARNEGYYFGLTLWGQGTLVTVSS
VL: DIQMTQSPSSLSASVGDRVTITCKASESVDHFGWSLVHWYQQKPGKAPKLLIYRASNLESGVPSRFSGSGSGTDFTLTISSLQPEDFATYYCQQSNEDPWTFGGGTKVEIKR
notes: also called IL13433-0001; 1RVHC9-VLA4
In the case of B1, the “IC50 (median), Monocyte CD23 expression” value in the test with recombinant human IL-13 [1] worked out at 10.5 pM. For the same molecule, the “IC50 (median), STAT6 phosphorylation in HT-29 cells” value with recombinant human IL-13 [1] is 92 pM; with native human IL-13, 79 pM. Moreover, the “IC50 (median) for STAT6 Phosphorylation in gated B Cells, human whole blood” value with recombinant human IL-13 [2] was found to be 66.5 pM. The “IC50 (median) for STAT6 Phosphorylation in gated Monocytes, human whole blood” value with recombinant human IL-13 [2] is 525 pM. Further, in the test with recombinant human IL-13 [3], the “IC50 (median), IL-13 induced CD23 expression on human monocytes” value was determined as 4.38 pM. For the same molecule, the “IL-13 induced CD23 upregulation (IC50), parental IgG” value with recombinant human IL-13 [4] was 4.7 pM and 4.38 pM. Also, the figures for the binding result (in [5]; with recombinant dog IL-13; with recombinant mouse IL-13) were “binds”, “no binding” and “no binding”, respectively.

B2: IL4-1305 (antibody, human IgG1, kappa)
heavy: EVTLRESGPALVKPTQTLTLTCTFSGFSLSNFGEGLSWIRQPPGKGLEWLAHIYWDDDKRYNPSLKSRLTISKDTSRNQVVLTMTNMDPVDTATYYCARRETVFYWYFDVWGRGTPVTVSSASTKGPSVFPLAPSSKSTSGGTAALGCLVKDYFPEPVTVSWNSGALTSGVHTFPAVLQSSGLYSLSSVVTVPSSSLGTQTYICNVNHKPSNTKVDKKVEPKSCDKTHTCPPCPAPEAAGAPSVFLFPPKPKDTLMISRTPEVTCVVVDVSHEDPEVKFNWYVDGVEVHNAKTKPREEQYNSTYRVVSVLTVLHQDWLNGKEYKCKVSNKALPAPIEKTISKAKGQPREPQVYTLPPSREEMTKNQVSLTCLVKGFYPSDIAVEWESNGQPENNYKTTPPVLDSDGSFFLYSKLTVDKSRWQQGNVFSCSVMHEALHNHYTQKSLSLSPGK
light: DIQMTQSPSSLSASVGDRVTITCKASQSVDEDGDSYMNWYQQKPGKAPKLLIYAASNLESGVPSRFSGSGSGTDFTLTISSLQPEDFATYYCQQSNEDPPTFGGGTKVEIKRTVAAPSVFIFPPSDEQLKSGTASVVCLLNNFYPREAKVQWKVDNALQSGNSQESVTEQDSKDSTYSLSSTLTLSKADYEKHKVYACEVTHQGLSSPVTKSFNRGEC
As for B2, the “IC50 for STAT6 Phosphorylation in gated B Cells, human whole blood” value with recombinant human IL-4 was determined as 73 pM. The “IC50 for STAT6 Phosphorylation in gated Monocytes, human whole blood” value in the test with recombinant human IL-4 came to 100 pM. Besides, the “IC50 for STAT6 Phosphorylation in gated T cells, human whole blood” value in the test with recombinant human IL-4 turned out to be 75 pM. The binding result in test [6] is reported as “binds”; in the test with recombinant dog IL-4, “no binding”; in the test with recombinant sheep IL-4, “no binding”; with recombinant rabbit IL-4 it was “no binding”; with recombinant rat IL-4, “no binding”; in the test with recombinant mouse IL-4 it was “no binding”.

B3: IL4-1305 (antibody, IgG1)
VH: EVTLRESGPALVKPTQTLTLTCTFSGFSLSNFGEGLSWIRQPPGKGLEWLAHIYWDDDKRYNPSLKSRLTISKDTSRNQVVLTMTNMDPVDTATYYCARRETVFYWYFDVWGRGTPVTVSS
light: DIQMTQSPSSLSASVGDRVTITCKASQSVDEDGDSYMNWYQQKPGKAPKLLIYAASNLESGVPSRFSGSGSGTDFTLTISSLQPEDFATYYCQQSNEDPPTFGGGTKVEIKRTVAAPSVFIFPPSDEQLKSGTASVVCLLNNFYPREAKVQWKVDNALQSGNSQESVTEQDSKDSTYSLSSTLTLSKADYEKHKVYACEVTHQGLSSPVTKSFNRGEC
notes: IgG1 effector-null
Turning to B3, the binding result is “binds” with cynomolgus monkey IL-4; “no binding” with mouse IL-4; “no binding” with rat IL-4; “no binding” in the test with rabbit IL-4; “no binding” in the test with dog IL-4; “no binding” with sheep IL-4.
